Experimental data as given in patent US11732029B2, “Methods and compositions for the treatment of wounds” (The University of Chicago, priority 2017, dated 2023).

Tests used:
VEGF-A145 = molecular target: T1, VEGF-A145 (Homo sapiens, UniProt P15692); test: vWF binding to recombinant VEGF-A isoforms (ELISA); conditions: plate coated with 50 nM vWF domains, 1 μg/mL VEGF-A, vs BSA
T1 construct: All GFs and chemokines were purchased in their mature forms; purchased R & D Systems
T1 sequence (P15692 27-171 isoform P15692-6 limits assumed): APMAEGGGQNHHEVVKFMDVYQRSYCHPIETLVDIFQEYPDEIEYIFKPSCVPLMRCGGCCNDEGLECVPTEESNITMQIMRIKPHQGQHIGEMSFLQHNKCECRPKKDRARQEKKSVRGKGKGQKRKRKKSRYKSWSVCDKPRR
Experimental: (§1) ELISA was performed as previously reported1. In brief, ELISA plates (med binding: Greiner Bio-One) were coated with 50 nM BSA (GE Healthcare), pro-peptide containing recombinant vWF (Sino Biological), plasma-derived vWF (EMD Millipore), recombinant human vWF A1 domain (U-Protein Express), recombinant human vWF A2 domain (R & D systems), recombinant human vWF A3 domain (U-Protein Express), vWF A1 HBD peptide or scrambled/mutated HBD peptide (all peptides were synthesized by Genscript). After blocking with 2% BSA solution containing PBS-T, 1 μg/mL of recombinant human VEGF-A121 (PeproTech), recombinant human VEGF-A145 (R & D Systems), or recombinant human VEGF-A165 (PeproTech) was added. Bound VEGF-A was detected with 1 μg/mL of mouse anti-human VEGF-A antibody (clone: 26503, R & D systems). After 60 min of incubation, horseradish peroxidase (HRP) conjugated goat anti-mouse antibody (1:2000 dilution, Dako) was added and incubated for another 60 min. Color development and the absorbance measurement were done as described above.

VEGF-A165 = molecular target: T2, VEGF-A165 (Homo sapiens, UniProt P15692); test: vWF binding to recombinant VEGF-A isoforms (ELISA); conditions: plate coated with 50 nM vWF domains, 1 μg/mL VEGF-A, vs BSA
T2 construct: All growth factors (GFs) and chemokines were purchased in their mature forms; purchased PeproTech; host or cells: Escherichia coli
T2 sequence (P15692 27-191 isoform P15692-4 limits assumed): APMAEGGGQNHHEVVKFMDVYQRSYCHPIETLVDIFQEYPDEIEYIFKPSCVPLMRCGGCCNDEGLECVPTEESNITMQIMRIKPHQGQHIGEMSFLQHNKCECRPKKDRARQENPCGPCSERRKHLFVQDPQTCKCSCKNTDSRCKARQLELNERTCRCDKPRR
Experimental: as §1

human lung fibroblasts = test: Cell adhesion assay on vWF HBD coated plates; format: cell-based; conditions: 1 μg/mL vWF HBD coated plates
Experimental: Cell adhesion assays were performed using starved human lung fibroblasts (Lonza) in FGM-2 medium (Lonza) with or without 5 mM EDTA. Cells were plated at 3000 cells/well on 1 μg/mL vWF HBD pre-coated 96-well plates (non-tissue culture treated, Greiner Bio-one) and incubated for 30 min at 37° C. Then, the medium was removed, and wells were further washed three times with new FGM-2 medium. Cell numbers were quantified using a CyQUANT assay (Invitrogen).

PDGF-BB = molecular target: T3, PDGF-BB (Homo sapiens, UniProt P01127); test: Surface plasmon resonance, vWF against GF; conditions: SPR; vWF immobilized; two estimated binding sites, heterogeneous ligand-parallel reaction fit; read-out: lowest KD value for PDGF-BB
T3 construct: All growth factors (GFs) and chemokines were purchased in their mature forms; purchased PeproTech; host or cells: Escherichia coli
Experimental: SPR assays were performed as described previously2. In brief, measurements were made with a Biacore X100 SPR system or Biacore 3000 SPR system (GE Healthcare). Plasma-derived vWF was immobilized via amine coupling on a C1 chip (GE Healthcare) for 2000 resonance units (RU) according to the manufacturer's instructions. Recombinant human VEGF-A165, VEGF-A121, or PDGF-BB was flowed at increasing concentrations in the running buffer at 30 μL/min. The sensor chip was regenerated with glycine at pH 2 for every cycle. Specific binding of GFs to vWF was calculated automatically using the response to a non-functionalized channel as a reference. Binding curves were fitted using BIAevalution software (GE Healthcare). vWF-VEGF-A165 binding results were fitted with Langmuir binding kinetics (1:1 binding with drifting baseline Rmax local). vWF-PDGF-BB binding results were fitted with heterogeneous ligand-parallel reaction.

FGF-2 = FGF-2 (Homo sapiens, UniProt P09038); test: vWF binding to recombinant GFs (ELISA); set-up: All GFs and chemokines were purchased in their mature forms; purchased PeproTech; host or cells: Escherichia coli; conditions: VEGF-A121 signal as baseline
Experimental: (§2) ELISA tests were performed as previously reported1. In brief, ELISA plates (med-binding, Greiner Bio-One) were coated with 50 nM GFs at 37° C. for 2 hrs. After blocking with 2% BSA solution containing PBS-T, 1 μg/mL of plasma-derived vWF (EMD Millipore) was added. Bound vWF was detected with 1 μg/mL of rabbit anti-human vWF antibody (Sino Biological). Then, HRP conjugated goat anti-rabbit antibody (Jackson ImmunoResearch) was added. After 60 min of incubation, 50 μL TMB substrate (Sigma-Aldrich) was added. The reaction was stopped by adding 25 μL of 2N H2SO4. Subsequently, the absorbance at 450 nm was measured and subtracted the absorbance at 570 nm.

PlGF-2 = molecular target: T4, PlGF-2 (Homo sapiens, UniProt P49763); test: vWF binding to recombinant GFs (ELISA); set-up: All GFs and chemokines were purchased in their mature forms; purchased PeproTech; host or cells: Escherichia coli; conditions: VEGF-A121 signal as baseline
T4 sequence (P49763 19-170 isoform P49763-3 limits assumed): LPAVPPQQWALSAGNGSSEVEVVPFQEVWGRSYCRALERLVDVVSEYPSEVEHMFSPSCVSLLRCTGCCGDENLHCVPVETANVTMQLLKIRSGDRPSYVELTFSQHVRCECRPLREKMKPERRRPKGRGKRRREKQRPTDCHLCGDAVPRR
Experimental: as §2

BMP-2 = molecular target: T5, BMP-2 (Homo sapiens, UniProt P12643); test: vWF binding to recombinant GFs (ELISA); set-up: All GFs and chemokines were purchased in their mature forms; purchased PeproTech; host or cells: Escherichia coli; conditions: VEGF-A121 signal as baseline
T5 sequence (P12643 283-396): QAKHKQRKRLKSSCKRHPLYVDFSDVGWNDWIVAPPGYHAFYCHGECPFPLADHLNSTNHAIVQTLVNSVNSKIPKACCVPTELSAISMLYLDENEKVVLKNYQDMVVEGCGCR
Experimental: as §2

VEGF-A121 = molecular target: T6, VEGF-A121 (Homo sapiens, UniProt P15692); test: vWF binding to recombinant GFs (ELISA); set-up: All GFs and chemokines were purchased in their mature forms; purchased PeproTech; host or cells: Escherichia coli; conditions: non-binding reference
T6 sequence (P15692 27-147 isoform P15692-9 limits assumed): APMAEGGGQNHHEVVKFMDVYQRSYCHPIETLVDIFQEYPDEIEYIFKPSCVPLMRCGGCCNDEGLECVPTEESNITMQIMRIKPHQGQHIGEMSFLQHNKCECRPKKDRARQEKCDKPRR
Experimental: as §2

Sequence of FGF-2 (P09038 143-288): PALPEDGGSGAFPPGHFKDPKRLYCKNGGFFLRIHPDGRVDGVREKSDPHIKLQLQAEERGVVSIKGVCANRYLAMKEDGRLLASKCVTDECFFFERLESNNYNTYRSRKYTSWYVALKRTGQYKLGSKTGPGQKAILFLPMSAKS
T3 sequence (P01127 82-190 limits assumed): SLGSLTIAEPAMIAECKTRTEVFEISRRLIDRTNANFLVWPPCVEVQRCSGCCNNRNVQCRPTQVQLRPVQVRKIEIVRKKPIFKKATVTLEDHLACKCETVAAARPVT

Row | Substance | binding to VEGF-A145 (VEGF-A145) | binding to VEGF-A165 (VEGF-A165) | fibroblast attachment with EDTA (human lung fibroblasts; 5 mM EDTA) | fibroblast attachment (human lung fibroblasts; 30 min, without EDTA) | Kd (PDGF-BB) [µM] | vWF binding to FGF-2 (FGF-2) | vWF binding to PlGF-2 (PlGF-2) | vWF binding to BMP-2 (BMP-2) | vWF binding to VEGF-A121 (VEGF-A121)
1 | YIGLKDRKRPSELRRIASQVKYAC [vWF HBD] | able to bind | able to bind | inhibited | significantly enhanced fibroblast attachment | – | – | – | – | –
2 | vWF: human plasma-derived von Willebrand factor (EMD Millipore) | bound | bind | – | – | 0.024 | bound | bound | strong binding | not
